Experimental data: the supplement of paper PMC10126150
± gives the standard deviation of the averaged measurements.

Tested on: ATP
Assay: switch fluorescence ratio, 500 uM ATP over buffer (Cy3 cluster intensity, sum of 5 cycles each) (fold (ratio)); higher = stronger signal-on switching upon ATP binding; sequences stand for … in TCGTCGGCAGCGTCAGATGTGTATAAGAGACAGTTTTTTTTTTTTTTTTTTTTTTTTT…TC
Settings: aptamer strand: ATP DNA aptamer (quencher-CACCTGGGGGAGTATTGCGGAGGAAGG + anchor), 100 nM annealed; ATP concentration: 500 uM
Procedure, shortened: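 Five buffer/ATP imaging cycles were run on Cy3-labelled switching-strand clusters on a modified Illumina MiSeq flow-cell, with NaOH stripping and re-annealing between cycles. In each cycle, clusters annealed to 100 nM quencher-labelled ATP aptamer were imaged in selection buffer, then after 15 min with 500 uM ATP at 22 °C. Per cluster, the fluorescence ratio is summed target-cycle over summed buffer-cycle Cy3 intensity, averaged per switch-domain sequence. Only clusters within 100-1000 RFU were kept.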
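Further: ATP exposure 15 min at 22 °C before imaging.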

Sequence	switch fluorescence ratio
GCGGGGGATG	1.01 ± 0.034
GCGGGGGCAG	0.993 ± 0.013
GCGGGGGCAT	0.964 ± 0.012
GCGGGGGCGC	0.985 ± 0.016
GCGGGGGGAC	1.01 ± 0.015
GCGGGGGGGG	1.02 ± 0.041
GCGGGGGTAC	1.11 ± 0.077
GCGGGGTTTT	1.01 ± 0.029
GCGGGTCGGG	0.969 ± 0.054
GCGGTACAGC	0.9782 ± 0.0069
GCGGTAGACG	1.01 ± 0.021
GCGGTAGTTT	0.9974 ± 0.0066
GCGGTGACCG	0.9978 ± 0.0046
GCGGTGAGAT	0.989 ± 0.012
GCGGTGGACG	0.947 ± 0.077
GCGGTGGGGA	1.03 ± 0.027
GCGGTTAAGG	0.9577 ± 0.006
GCGGTTCTC	1.03 ± 0.029
GCGGTTGCGT	0.971 ± 0.057
GCGTAAATTG	0.9923 ± 0.0053
GCGTAAGTG	0.986 ± 0.041
GCGTACTGTG	0.994 ± 0.022
GCGTAGAGCG	0.9878 ± 0.0012
GCGTATTCTA	1 ± 0.033
GCGTCAACTC	1.1 ± 0.016

Sequence	switch fluorescence ratio
GCGTCACGTC	1.05 ± 0.054
GCGTCCACCA	1.03 ± 0.067
GCGTCCACGG	1.017 ± 0.01
GCGTCCCGTG	0.985 ± 0.11
GCGTCCGCTG	1.22 ± 0.039
GCGTCGGGGG	1.01 ± 0.028
GCGTGACCGC	0.995 ± 0.04
GCGTGACGTA	1 ± 0.088
GCGTGCAGGA	1.027 ± 0.01
GCGTGCATTC	1.05 ± 0.017
GCGTGCGTGT	1.03 ± 0.032
GCGTGTCCGT	1.01 ± 0.025
GCGTGTCTAT	0.991 ± 0.019
GCGTTAATAA	1.06 ± 0.038
GCGTTCAGGT	1.01 ± 0.02
GCGTTCCTTG	1.071 ± 0.0017
GCGTTGAGGA	1.04 ± 0.08
GCGTTGGAGC	0.9949 ± 0.0072
GCGTTGGCCA	1.01 ± 0.016
GCGTTGTGTG	1.02 ± 0.027
GCGTTGTTTG	0.958 ± 0.042
GCGTTTAGAA	0.987 ± 0.036
GCGTTTCGGG	0.968 ± 0.018
GCGTTTGCCC	1.06 ± 0.072
GCGTTTTTTG	0.9912 ± 0.0054

Sequence	switch fluorescence ratio
GCTAAAGTCG	0.9814 ± 0.005
GCTAACGGCA	0.994 ± 0.03
GCTAATAAAT	1.046 ± 0.0035
GCTAATATTA	1.03 ± 0.021
GCTACACGGC	1.02 ± 0.033
GCTACACTGA	1.04 ± 0.023
GCTACAGCAT	1.06 ± 0.031
GCTACCACTC	1.089 ± 0.01
GCTACCCATC	1.1 ± 0.05
GCTACTTTTG	0.998 ± 0.027
GCTAGAAGTA	1.02 ± 0.049
GCTAGAGGGT	1.02 ± 0.027
GCTAGCAATG	0.982 ± 0.037
GCTAGCTGGT	0.989 ± 0.021
GCTAGGAAGT	0.983 ± 0.022
GCTAGGACGT	0.997 ± 0.03
GCTAGGGTAG	1.03 ± 0.058
GCTAGTGCTA	0.996 ± 0.04
GCTATAGTCG	1.022 ± 0.0027
GCTATCATGG	0.9727 ± 0.0076
GCTATCTCTT	1.01 ± 0.012
GCTATTGGTG	1.06 ± 0.019
GCTATTGTTC	0.967 ± 0.039
GCTATTTAGG	1 ± 0.024
GCTCAAAGCT	1.01 ± 0.043

Sequence	switch fluorescence ratio
GCTCATTATT	1.014 ± 0.0015
GCTCCAATCG	1.13 ± 0.049
GCTCCAGGGG	2.88 ± 2.5
GCTCCAGGTA	1.577 ± 0.0021
GCTCCATTTG	0.983 ± 0.021
GCTCCCTTTC	1.84 ± 0.08
GCTCCTAAAA	1.1039 ± 0.00034
GCTCGAGTTG	0.9967 ± 0.0094
GCTCGATTGG	0.9766 ± 0.0057
GCTCGCCGAT	1.01 ± 0.016
GCTCGCCTTA	0.999 ± 0.039
GCTCGGCCCG	1.04 ± 0.061
GCTCGGGTTG	0.984 ± 0.041
GCTCGTTAGG	0.995 ± 0.029
GCTCTCATAT	1.027 ± 0.0086
GCTCTGAGGG	1.056 ± 0.009
GCTCTGTGGG	0.967 ± 0.024
GCTCTGTGTT	0.993 ± 0.017
GCTCTGTTTT	1 ± 0.011
GCTCTTGACA	1 ± 0.011
GCTCTTGGTT	1.02 ± 0.045
GCTGAAGGCT	0.962 ± 0.03
GCTGAAGGGT	1.012 ± 0.0019
GCTGAATAAT	1.01 ± 0.029
GCTGAATTTG	0.989 ± 0.058

Sequence	switch fluorescence ratio
GCTGAGGCAA	1.06 ± 0.015
GCTGAGGCAG	1.002 ± 0.0046
GCTGAGGGGA	1.03 ± 0.049
GCTGAGGGGG	0.991 ± 0.041
GCTGATAATG	0.978 ± 0.014
GCTGATGCGT	1.01 ± 0.038
GCTGATTGGC	1.05 ± 0.13
GCTGATTTGT	0.989 ± 0.038
GCTGCAGATT	0.988 ± 0.03
GCTGCAGGGT	0.9922 ± 0.009
GCTGCCGTGT	0.967 ± 0.064
GCTGCGGGAT	1.16 ± 0.15
GCTGCGGGG	1.01 ± 0.053
GCTGCTGGGC	0.968 ± 0.036
GCTGCTTAGC	1.02 ± 0.018
GCTGCTTGGG	1.01 ± 0.019
GCTGGAAGTA	0.97 ± 0.046
GCTGGAATAT	1 ± 0.039
GCTGGAATTG	1 ± 0.0077
GCTGGACTCG	1.053 ± 0.0015
GCTGGACTTG	0.998 ± 0.053
GCTGGAGGAC	0.996 ± 0.032
GCTGGAGGGG	0.985 ± 0.018
GCTGGATTGG	0.965 ± 0.016
GCTGGGAGGC	0.947 ± 0.071

Sequence	switch fluorescence ratio
GCTGGGCCGA	1.01 ± 0.036
GCTGGGGAAA	0.996 ± 0.032
GCTGGGGGAA	0.98 ± 0.019
GCTGGGGTTT	0.996 ± 0.043
GCTGGGTCTG	1 ± 0.017
GCTGGGTGTG	1.03 ± 0.011
GCTGGTACAG	1 ± 0.022
GCTGGTACTG	0.986 ± 0.037
GCTGGTAGTT	0.995 ± 0.028
GCTGGTGTGG	0.995 ± 0.011
GCTGGTTAGG	1 ± 0.032
GCTGGTTCTG	0.982 ± 0.054
GCTGGTTGAC	0.981 ± 0.017
GCTGGTTGGG	0.98 ± 0.014
GCTGTAAGAA	1.01 ± 0.037
GCTGTACGCT	0.9539 ± 0.0027
GCTGTACTCA	1.43 ± 0.13
GCTGTAGACT	0.992 ± 0.038
GCTGTAGGGC	1.015 ± 0.0034
GCTGTAGTGG	0.998 ± 0.051
GCTGTAGTTG	0.993 ± 0.019
GCTGTCTATC	1.01 ± 0.027
GCTGTGGCGT	1.02 ± 0.04
GCTGTGGGGG	0.966 ± 0.013
GCTGTTAGTG	0.98 ± 0.013

Sequence	switch fluorescence ratio
GCTGTTCCCG	1.04 ± 0.071
GCTGTTCTTC	0.985 ± 0.013
GCTTAAACGG	1.02 ± 0.073
GCTTAAAGGC	1.01 ± 0.03
GCTTACGTCA	1.05 ± 0.086
GCTTAGGGGG	1.031 ± 0.0069
GCTTAGTTGT	1.015 ± 0.0065
GCTTATATAT	0.98542 ± 0.00086
GCTTATATTT	1.045 ± 0.0055
GCTTCCTGCC	1.4 ± 0.027
GCTTCTATTG	1.001 ± 0.00067
GCTTCTGCCT	1 ± 0.013
GCTTCTTAGT	1.028 ± 0.0053
GCTTGACG	1.004 ± 0.01
GCTTGATGAA	1.034 ± 0.0013
GCTTGATTAG	0.9963 ± 0.0018
GCTTGATTGG	1.04 ± 0.019
GCTTGGCAAC	1.02 ± 0.012
GCTTGGCTGT	0.999 ± 0.017
GCTTGGGGGT	0.987 ± 0.018
GCTTGTAGTT	0.9865 ± 0.0072
GCTTGTGCAT	0.989 ± 0.028
GCTTGTTTGG	0.961 ± 0.013
GCTTGTTTTT	0.997 ± 0.018
GCTTTAGAGA	0.985 ± 0.019

Sequence	switch fluorescence ratio
GCTTTCGGGC	1.01 ± 0.045
GCTTTCGTTA	1.018 ± 0.0071
GCTTTTCGAT	0.994 ± 0.035
GCTTTTGCCG	0.993 ± 0.036
GCTTTTGCGG	0.981 ± 0.045
GCTTTTTAGT	1.006 ± 0.0021
GCTTTTTCCA	0.975 ± 0.035
GCTTTTTGC	0.951 ± 0.065
GCTTTTTGTA	0.981 ± 0.032
GCTTTTTGTC	1.06 ± 0.013
GGAAAAGTTT	0.986 ± 0.04
GGAAAATAAT	1.01 ± 0.035
GGAAAATGTA	1.023 ± 0.0063
GGAAAATTTT	0.994 ± 0.033
GGAAAGATGT	1.01 ± 0.027
GGAAAGATTG	0.991 ± 0.041
GGAAAGCGTG	0.993 ± 0.084
GGAAAGGGGT	1.03 ± 0.082
GGAAAGTAGG	1.01 ± 0.046
GGAAATATCG	0.989 ± 0.021
GGAAATGAAT	1.02 ± 0.029
GGAAATTGGG	0.994 ± 0.016
GGAACAAGGT	0.988 ± 0.059
GGAACCCGTG	0.997 ± 0.048
GGAACGAAAG	0.995 ± 0.043
